Results on four substances are retold here after US20200115464A1.

A word on the Kd: it is the free concentration of one partner at which half of the binding sites on the other are occupied at equilibrium, for simple one-to-one binding. High values mean lower affinity, low ones higher affinity. What is called koff is a measure of how fast the partners let go of each other. A lower koff goes with a long-lived complex. Usually kon stands for a measure of how fast the partners come together. A higher kon goes with faster complex formation. For orientation: EC50 means the midpoint of the concentration-response curve. A higher EC50 goes with lower potency in that assay.

The target in assay [1] is His-tagged cynomolgus FcγRIIA (cynomolgus monkey). Kind of assay: SPR steady-state, His-captured FcγR, antibody injected, 25 C.
Assay [2] concerns the target His-tagged human FcγRIIA (H131) (human) (UniProt P12318). Described as above.
Assay [3] concerns the target His-tagged cynomolgus FcγRIIB (cynomolgus monkey). The assay is described as above.
In assay [4] the target is His-tagged human FcγRIIIA (V176) (human) (UniProt P08637). The description is as above.
His-tagged human FcγRIIIA (V176) (human), sequence (P08637 17-208 F176V limits assumed): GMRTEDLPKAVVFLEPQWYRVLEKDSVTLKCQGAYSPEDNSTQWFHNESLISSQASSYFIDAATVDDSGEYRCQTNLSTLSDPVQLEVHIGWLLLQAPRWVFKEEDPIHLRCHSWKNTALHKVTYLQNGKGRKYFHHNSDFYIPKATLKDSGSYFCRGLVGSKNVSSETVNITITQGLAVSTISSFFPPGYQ
Assay [5] concerns the target His-tagged human FcγRIIIB (human) (UniProt O75015). The assay is described as above.
Assay [6] concerns the target His-tagged human FcγRIIIA (F176) (human) (UniProt P08637). Described as above.
The target in assay [7] is His-tagged human FcγRIIA (R131) (human) (UniProt P12318). The assay is described as above.
His-tagged human FcγRIIA (R131) (human), sequence (P12318 36-218 H167R limits assumed): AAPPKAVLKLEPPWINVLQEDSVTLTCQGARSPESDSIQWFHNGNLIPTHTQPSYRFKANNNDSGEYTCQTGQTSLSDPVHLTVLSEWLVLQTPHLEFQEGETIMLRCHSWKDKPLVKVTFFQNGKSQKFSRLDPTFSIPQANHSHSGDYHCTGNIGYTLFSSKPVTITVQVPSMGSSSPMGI
Assay [8] has as its target His-tagged cynomolgus FcγRIIIA (cynomolgus monkey) (UniProt Q8SPW2). Described as above.
In assay [9] the target is His-tagged human FcγRI (human) (UniProt P12314). In words: SPR (Biacore T200), His-captured human FcγRI, antibody injected, 25 C. On the technique in general: SPR reads the build-up and loss of mass on a sensor chip optically.
His-tagged human FcγRI (human), sequence (P12314 16-288 limits assumed): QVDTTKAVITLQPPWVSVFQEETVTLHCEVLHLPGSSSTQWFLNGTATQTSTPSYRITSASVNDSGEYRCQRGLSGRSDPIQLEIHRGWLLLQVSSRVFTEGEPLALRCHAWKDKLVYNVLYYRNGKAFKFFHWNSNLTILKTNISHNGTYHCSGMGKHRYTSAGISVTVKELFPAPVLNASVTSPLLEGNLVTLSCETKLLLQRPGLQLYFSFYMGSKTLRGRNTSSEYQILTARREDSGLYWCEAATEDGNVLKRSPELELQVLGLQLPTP
Assay [10] addresses human CD3 on Jurkat cells (CD3+, CD20- human T-cell line) (human) (UniProt P07766). In words: FACS, serially diluted antibody on Jurkat cells (CD3+, CD20-).
In assay [11] the target is FcR on U937 cells. Kind of assay: cell-based or functional assay.
Assay [12] deals with His-tagged human FcγRIIB (human) (UniProt P31994). Kind of assay: SPR steady-state, His-captured FcγR, antibody injected, 25 C.
His-tagged human FcγRIIB (human), sequence (P31994 46-217 limits assumed): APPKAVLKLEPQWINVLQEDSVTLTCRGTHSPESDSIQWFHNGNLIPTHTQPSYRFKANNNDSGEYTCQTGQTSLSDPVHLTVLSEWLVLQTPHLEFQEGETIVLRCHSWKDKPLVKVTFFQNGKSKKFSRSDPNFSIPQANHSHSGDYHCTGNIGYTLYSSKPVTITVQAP
Assay [13] concerns the target cynomolgus CD3 on T cells of cynomolgus PBMCs (mkT cells) (cynomolgus monkey). Kind of assay: FACS, serially diluted antibody on cynomolgus PBMC T cells (mkT cells).

His-tagged human FcγRIIA (H131) (human), sequence (P12318 36-218 limits assumed): as the sequence (P12318 36-218 H167R limits assumed) above, with R132H counted along it
His-tagged human FcγRIIIA (F176) (human), sequence (P08637 17-208 limits assumed): as the sequence (P08637 17-208 F176V limits assumed) above, with V160F counted along it
His-tagged cynomolgus FcγRIIIA (cynomolgus monkey), sequence (Q8SPW2 17-208 limits assumed): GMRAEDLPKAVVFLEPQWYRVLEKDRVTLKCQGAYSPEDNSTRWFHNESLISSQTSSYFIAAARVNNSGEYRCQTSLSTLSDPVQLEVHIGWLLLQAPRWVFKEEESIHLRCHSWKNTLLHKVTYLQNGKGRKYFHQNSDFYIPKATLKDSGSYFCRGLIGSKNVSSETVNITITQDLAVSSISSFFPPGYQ
His-tagged human FcγRIIIB (human), sequence (O75015 17-200 limits assumed): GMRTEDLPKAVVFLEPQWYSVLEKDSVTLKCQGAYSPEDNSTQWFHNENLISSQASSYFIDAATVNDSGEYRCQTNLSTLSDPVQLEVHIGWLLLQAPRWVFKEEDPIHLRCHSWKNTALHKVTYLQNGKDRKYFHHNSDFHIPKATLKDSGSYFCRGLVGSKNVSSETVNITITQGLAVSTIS

Regarding wt-IgG1 Isotype Control (antibody), the equilibrium dissociation constant (Kd) in [1] was 42 nM; in assay [2], 11 nM; in [3], 42 nM; in assay [4], 15 nM; in assay [5] it was 23 nM; in assay [6] it was 13 nM. The equilibrium dissociation constant (Kd) in assay [7] came to 20 nM; in assay [8], 6 nM; in assay [9], 4.3 nM. In assay [9], this substance registered a T1/2 of 15 min. Besides, the koff in assay [9] was 0.000748 s⁻¹. The same substance displayed a kon in assay [9] of 174000 M⁻¹ s⁻¹.

“Control Antibody 1: monoclonal antibody OKT-3 against human T-cell surface antigens”: in assay [10], the EC50 was 0.196 nM. Besides, in [11], the U937 Cytotoxicity Human T-cells [M] (EC50, calcein release) is 3.04e-12 M.

Consider wt-IgG4 CPPC Isotype Control (antibody), for which the Kd was found to be 193 nM in [1]; 120 nM in assay [2]; 96 nM in assay [3]; 98 nM in assay [12]; 260 nM in assay [6]; 100 nM in assay [7]. In addition, the Kd in [8] amounted to 58 nM; in assay [9], 13.9 nM. Besides, the T1/2 in assay [9] is 5 min.

For “Control Antibody 2: antibody SP34 reactive against the epsilon chain of the T3 complex on human T lymphocyte cells”, the EC50 in assay [13] was found to be 0.0703 nM.
